Here are results for 2 compounds from paper PMC4669500, “Characterization of Pseudooxynicotine Amine Oxidase of Pseudomonas putida S16 that Is Crucial for Nicotine Degradation” (Scientific Reports, 2015).

In data set [1] the target is T1, Pnao (pseudooxynicotine amine oxidase) (Pseudomonas putida, UniProt F8G0P1).
T1 construct: full-length, His6-tagged (pET28a NcoI-XhoI, tag kept), expressed in E. coli C43(DE3), about 54 kDa; FAD-containing
The data set is described as follows: HPLC and UV-Vis of cofactor released by boiling purified protein. Format: binding. The following applies: co-purified cofactor, non-covalent (released by boiling).

The next data set relates to CNCCCC(=O)c1cccnc1. In words: purified protein. Format: biochemical, Pseudomonas putida. The note with it: 30 °C, 25 mM sodium phosphate pH 8.5, O2 as oxidant.

T1 sequence (F8G0P1 whole entry): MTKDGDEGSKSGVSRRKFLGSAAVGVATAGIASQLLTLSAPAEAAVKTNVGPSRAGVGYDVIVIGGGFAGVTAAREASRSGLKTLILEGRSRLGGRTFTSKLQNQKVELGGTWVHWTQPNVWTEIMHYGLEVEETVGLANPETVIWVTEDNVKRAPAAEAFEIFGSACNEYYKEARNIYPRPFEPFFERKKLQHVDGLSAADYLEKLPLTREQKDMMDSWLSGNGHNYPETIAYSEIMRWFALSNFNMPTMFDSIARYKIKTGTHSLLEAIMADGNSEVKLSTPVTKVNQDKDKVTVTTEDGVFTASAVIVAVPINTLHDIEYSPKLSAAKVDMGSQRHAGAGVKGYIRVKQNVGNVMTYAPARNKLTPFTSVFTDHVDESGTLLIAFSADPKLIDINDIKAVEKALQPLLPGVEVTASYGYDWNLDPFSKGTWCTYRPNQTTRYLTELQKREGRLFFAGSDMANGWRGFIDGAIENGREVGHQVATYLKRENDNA

On to `Cc1cc2nc3c(=O)[nH]c(=O)nc-3n(C[C@H](O)[C@H](O)[C@H](O)COP(=O)(O)OP(=O)(O)OC[C@H]3O[C@@H](n4cnc5c(N)ncnc54)[C@H](O)[C@@H]3O)c2cc1C` [FAD, Flavin adenine dinucleotide], for which the “HPLC and UV-Vis of cofactor released by boiling purified protein” value in data set [1] was “These results indicated that FAD was the cofactor associated with Pnao”.
Broadly, the Km is the substrate concentration at which the rate is half of its maximum. The kcat is the number of substrate molecules converted per active site and unit of time at saturation. “Pnao (pseudooxynicotine amine oxidase) (Pseudomonas putida S16)”: in the data set on CNCCCC(=O)c1cccnc1, the Km was 73 ± 18 µM and the catalytic constant (kcat) was found to be 0.790 ± 0.074 s⁻¹.
